Source: patent publication US20260234655A1, “Nuclear Targeted DNA Delivery and Compositions for Use in Practicing the Same” (Seawolf Therapeutics, Inc., priority 2022, published 2026)
“Also recorded” adds a separate entry of the source.

B1: DTS.203: combinatorial DTS: CREB1, PPARA, ONECUT1, HNF4A, PPARA binding sites (nucleic acid)
DNA: CTGACGTCAGAGATTACTACTGATACAAAACTAGGTCAAAGGTCAAGATTACTACTGATAGTCTGCTAAGTCAATAATCAGAATAGATTACTACTGATACGCCCCAGCACACATGATCAGAAGATTACTACTGATAAGGTCAAAGGTCA
B2: DTS.233: combinatorial DTS: HNF1A, NR1I3, PPARA, HNF1A, PPARA binding sites (nucleic acid)
DNA: GGTTAATAATTAACAGATTACTACTGATACCTCTTCTCTGTGGGTGACCAGCGTCCTAAGATTACTACTGATAAACTAGGTCAAAGGTCAAGATTACTACTGATAAGTATGGTTAATGATCTACAGAGATTACTACTGATACAAAACTAGGTCAAAGGTCA
B3: DTS.276: combinatorial DTS: FOXA1, HNF4A, HNF1A, HNF4A, HNF1A binding sites (nucleic acid)
DNA: TGTTTACTTTAGATTACTACTGATATCGAGCGCAGGTCAAAGGTCACCTGCAGATTACTACTGATAGGTTAATAATTAACAGATTACTACTGATATCGAGCGCTGGGCAAAGGTCACCTGCAGATTACTACTGATAAGTATGGTTAATGATCTACAG

How the values were obtained:
[1] = system: growth-arrested HepG2 cells; assay: Arrayed DTS screen in growth-arrested HepG2 cells; GFP intensity by live-cell imaging; type: cell-based; conditions: 24 h post-transfection
Source text: DNA construct design. Each DTS was constructed in pentameric repeat using a 15 bp spacer between each TFBS. The DTS was appended just 5′ to the promoter, effectively in a putative enhancer region. Various promoters were employed in these constructs, including CBh (a variant of the CAG promoter) and TTR. Several reporter genes were employed in these constructs, including enhanced Green Fluorescent Protein (eGFP). The polyadenylation (polyA) signal is a BGH-PolyA sequence. For pooled screening, unique molecular identifiers (UMIs; also known as barcodes) were used to distinguish between DNA constructs in a pool, and the UMIs were appended to the 3′UTR immediately downstream of the stop codon of eGFP, just preceding the BGH-PolyA sequence.
Cell culture. HepG2 cells were plated into a 384-well plate and grown for 48 hours to achieve confluency. Cell media was removed and replaced with culture media supplemented with Aphidicolin (1 uM) using EL406 automated plate washer and dispenser, then cells were transfected with DTS containing 17.5 ng plasmids using Lipofectamine 3000 without supplement. Expression of GFP was monitored using a Biotek Cytation 5 cell imaging reader over 24 hours to evaluate DTS activity. Total GFP per well was calculated and averaged over 4 well replicates.
pDNAs containing various DTSs (Table 12) were transfected individually into growth-arrested HepG2 cells. Cell growth was inhibited to prevent dissolution of the nuclear envelope. GFP expression was quantified over a period of 24 h post-transfection by measuring GFP intensity using quantitative live-cell imaging. Statistical analysis and hierarchical clustering methods were used to easily differentiate strong DTSs from weak DTSs in a heatmap (FIG. 5A). […] DTS.203: CREB1, PPARA, ONECUT1, HNF4A, PPARA. DTS.233: HNF1A, NR113, PPARA, HNF1A, PPARA. DTS.276: FOXA1, HNF4A, HNF1A, HNF4A, HNF1A.
For the arrayed screen, pDNAs containing various DTSs were transfected individually into growth-arrested HepG2 cells. For the pooled screen, pDNAs containing various DTSs were pooled together and transfected as a pool into growth-arrested HepG2 cells. Cell growth was inhibited to prevent dissolution of the nuclear envelope, which improves the accuracy of measuring DTS activity related to nuclear translocation. For the arrayed screen, GFP protein expression was quantified 24 h post-transfection by measuring GFP intensity using quantitative live-cell imaging. For the pooled screen, mRNA abundance for each DTS variant was determined using RNA-seq by deconvoluting the read counts for each UMI. A strong correlation between protein expression in the arrayed screen and mRNA expression in the pooled screen was observed (FIG. 6). […] Pooled screening can thus be used to quickly and reliably identify strong DTSs.

[2] = system: growth-arrested HepG2 cells; assay: Pooled DTS screen in growth-arrested HepG2 cells; mRNA abundance by RNA-seq of UMIs; type: cell-based
Source text: Library cloning. Pooled DTS libraries were designed as described above. To ensure the highest quality library production of oligos for cloning, oligo lengths were standardized to 300 bp. To accommodate this standardized length the core sequence of each DTS was embedded center-justified in a neutral fragment of random DNA sequence. The flanks of each oligo contained unique golden gate restriction enzyme digestion sites (Bsal) for cloning of double stranded DNA into screening vectors. […] The proper UMI/DTS barcode correlation (termed here the “library registry”) was determined via excision of the hTTR/eGFP fragments, re-ligation of the vector, PCR amplification of the corresponding proximal DTS and UMI regions, and sequencing on an Illumina Miseq (2×150 bp reads). […]
Quantification of mRNA abundance from pooled DTS screens. […] The PCR amplified cDNA was then library prepped (NEBNext library prep for Illumina) and sequenced on an Illumina Miseq (2×150 bp reads). Counts for each UMI were translated into the corresponding DTS using the UMI/Barcode registry and changes in abundance of each DTS were statistically analyzed using a custom R script. The log 2 fold change is calculated by comparing the RNA level in the pool vs. its expected abundance, which is derived from the abundance in the corresponding input DNA pool. […]

Molecule	GFP intensity / gene expression in arrayed screen compared to Spacer negative control [1]	mRNA abundance in pooled screen relative to Spacer negative control [2]
B1	performed equivalently or better than NFKB	
B2	performed equivalently or better than NFKB; also recorded: robust increases	robust increases
B3	performed equivalently or better than NFKB	
